From US8753698B2, “Anti-hypertensive functional food products” (Globus Egg Sciences B.V., priority 2004, dated 2014)

Molecular target: Angiotensin-I Converting Enzyme (ACE) (Homo sapiens, UniProt P12821)
Experiment: Determination of ACE inhibitory activity of hydrolysates in a microtiter plate (Hip-His-Leu substrate)
Type: biochemical
Conditions: no digestion simulation, in %
Method: ACE inhibitory activity can be measured in vitro using a spectrophotometry based assay. The assay is based on the liberation of hippuric acid from Hip-His-Leu substrate catalyzed by ACE.
Calculation of Ace Inhibition:
[formula] 2.4 Further (Optimized) Hydrolysis of Ovomucin with Alcalase Protocol for the DH Determination by TNBS Method Solutions: • 0.21 M Sodium phosphate buffer pH8.2 • 0.21 M NaH2PO4.H2O (25 ml solution) • 0.21 M Na2HPO4.2H2O (500 ml solution) • mix solutions to pH 8.2 • 0.05% TNBS • Dilute TNBS stock (5% solution) to 0.05% in MQ cover reagent tube with aluminium foil and store in dark place • 1% SDS solution • Leucine standard (stock 3 mM Leucine) • Dissolve Leucine in 1% SDS solution. Dilute the stock solution 20×, 10×, 4× en 2× with 1% SDS for analysis • Blank • Dilute non-hydrolysed sample in 1% SDS to a protein concentration of 0.5 mg/ml • Samples • Dilute hydrolysed protein in 1% SDS to a concentration of 0.5 mg/ml in duplo Analysis: • Pipet 15 μl sample (Leucine standard or sample) in microwell. Measure each dilution in twofold in plate (Costar, non-binding plate) • Add 45 μl 0.21 M sodium phosphate buffer pH 8.2 • Add 45 μl 0.05% TNBS. Cover plate with aluminium foil. Incubate plate for 60 minutes in a 50° C. stove. • After incubation add 90 μl 0.1 N HCl • Measure absorption at 340 nm (microplate reader) Calculation of degree of hydrolysis (DH): • Make calibration line of Leucine standard. This calibration line is used to convert absorption values of samples to NH2-equivalents.

Sequence of Angiotensin-I Converting Enzyme (ACE) (P12821 30-1306, species assumed): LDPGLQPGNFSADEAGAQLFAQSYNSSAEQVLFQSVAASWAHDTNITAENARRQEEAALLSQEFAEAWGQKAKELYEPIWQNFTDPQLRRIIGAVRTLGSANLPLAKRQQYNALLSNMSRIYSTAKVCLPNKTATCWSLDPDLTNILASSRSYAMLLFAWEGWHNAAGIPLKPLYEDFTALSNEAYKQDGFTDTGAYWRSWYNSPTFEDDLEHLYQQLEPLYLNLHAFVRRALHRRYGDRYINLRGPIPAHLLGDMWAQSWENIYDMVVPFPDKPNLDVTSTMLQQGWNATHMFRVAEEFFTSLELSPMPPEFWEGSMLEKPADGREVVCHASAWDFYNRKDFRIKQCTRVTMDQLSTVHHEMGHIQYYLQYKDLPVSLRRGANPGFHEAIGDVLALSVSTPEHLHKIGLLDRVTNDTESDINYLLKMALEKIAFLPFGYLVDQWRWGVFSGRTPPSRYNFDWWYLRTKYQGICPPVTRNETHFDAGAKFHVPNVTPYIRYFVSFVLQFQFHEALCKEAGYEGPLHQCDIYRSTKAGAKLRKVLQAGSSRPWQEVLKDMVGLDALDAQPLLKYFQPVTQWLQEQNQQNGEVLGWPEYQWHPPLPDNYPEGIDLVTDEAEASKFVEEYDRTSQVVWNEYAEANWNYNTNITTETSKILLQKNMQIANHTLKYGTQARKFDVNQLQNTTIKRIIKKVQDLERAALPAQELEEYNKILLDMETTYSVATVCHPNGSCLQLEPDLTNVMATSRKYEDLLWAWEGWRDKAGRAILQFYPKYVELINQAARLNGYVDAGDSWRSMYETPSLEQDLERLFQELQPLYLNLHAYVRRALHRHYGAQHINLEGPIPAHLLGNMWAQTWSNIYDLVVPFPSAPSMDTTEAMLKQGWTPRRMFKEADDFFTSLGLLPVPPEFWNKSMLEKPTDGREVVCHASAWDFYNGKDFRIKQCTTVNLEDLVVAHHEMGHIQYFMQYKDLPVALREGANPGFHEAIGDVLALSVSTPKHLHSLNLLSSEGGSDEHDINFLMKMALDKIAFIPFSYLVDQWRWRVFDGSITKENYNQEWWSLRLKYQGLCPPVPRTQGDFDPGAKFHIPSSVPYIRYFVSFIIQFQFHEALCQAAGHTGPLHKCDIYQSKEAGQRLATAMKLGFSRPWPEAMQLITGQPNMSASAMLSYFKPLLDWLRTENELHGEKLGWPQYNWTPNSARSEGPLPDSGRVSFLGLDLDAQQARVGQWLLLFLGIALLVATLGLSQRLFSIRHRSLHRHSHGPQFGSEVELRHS

- ACE inhibition (conc. 0.019 mg/ml): 0.7
- ACE inhibition (conc. 0.056 mg/ml): −4.1
- ACE inhibition (conc. 0.167 mg/ml): 0.7
- ACE inhibition (conc. 0.500 mg/ml): −0.3
B1: OT-UM: ovotransferrin, not pre-hydrolysed, nor in vitro digested (protein)
chain: APPKSVIRWCTISSPEEKKCNNLRDLTQQERISLTCVQKATYLDCIKAIANNEADAISLDGGQAFEAGLAPYKLKPIAAEVYEHTEGSTTSYYAVAVVKKGTEFTVNDLQGKTSCHTGLGRSAGWNIPIGTLLHRGAIEWEGIESGSVEQAVAKFFSASCVPGATIEQKLCRQCKGDPKTKCARNAPYSGYSGAFHCLKDGKGDVAFVKHTTVNENAPDQKDEYELLCLDGSRQPVDNYKTCNWARVAAHAVVARDDNKVEDIWSFLSKAQSDFGVDTKSDFHLFGPPGKKDPVLKDLLFKDSAIMLKRVPSLMDSQLYLGFEYYSAIQSMRKDQLTPSPRENRIQWCAVGKDEKSKCDRWSVVSNGDVECTVVDETKDCIIKIMKGEADAVALDGGLVYTAGVCGLVPVMAERYDDESQCSKTDERPASYFAVAVARKDSNVNWNNLKGKKSCHTAVGRTAGWVIPMGLIHNRTGTCNFDEYFSEGCAPGSPPNSRLCQLCQGSGGIPPEKCVASSHEKYFGYTGALRCLVEKGDVAFIQHSTVEENTGGKNKADWAKNLQMDDFELLCTDGRRANVMDYRECNLAEVPTHAVVVRPEKANKIRDLLERQEKRFGVNGSEKSKFMMFESQNKDLLFKDLTKCLFKVREGTTYKEFLGDKFYTVISSLKTCNPSDILQMCSFLEGK
